{"source": "patent US20140341938A1", "biological_target": "SIINFEKL:K^b complex (SIINFEKL complexed to H-2K^b) on LK^b cells (murine) (UniProt P01901)", "sequence (P01901 22-369, one chain of several)": "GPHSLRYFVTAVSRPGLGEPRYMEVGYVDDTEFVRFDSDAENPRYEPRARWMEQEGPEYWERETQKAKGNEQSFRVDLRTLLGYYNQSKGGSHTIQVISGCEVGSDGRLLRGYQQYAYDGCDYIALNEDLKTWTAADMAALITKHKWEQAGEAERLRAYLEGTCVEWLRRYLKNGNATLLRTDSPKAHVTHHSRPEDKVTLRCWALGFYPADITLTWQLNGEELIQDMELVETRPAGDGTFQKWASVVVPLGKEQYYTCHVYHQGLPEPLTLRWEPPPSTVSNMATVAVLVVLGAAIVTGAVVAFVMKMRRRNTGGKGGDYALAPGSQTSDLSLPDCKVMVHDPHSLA", "assay": "cell-based or functional assay"}
{"sequence": "T cell receptor of the SIINFEKL:Kb-specific T hybridoma B3Z (TCR)", "values": [{"measurement": "β-galactosidase measured with a luminescent substrate after overnight co-incubation of SIINFEKL-pulsed LK^b cells with B3Z; limit of detection given as the peptide pulse concentration", "value": 5, "unit": "ng/mL"}]}
